Laboratory results published in publication PMC3823998, “Structural and Functional Characterization of the Redβ Recombinase from Bacteriophage λ” (PLoS ONE, 2013).

Target: T1, Redβ WT (Bacteriophage λ (Enterobacteria phage λ), UniProt P03698 1-261)
T1 sequence: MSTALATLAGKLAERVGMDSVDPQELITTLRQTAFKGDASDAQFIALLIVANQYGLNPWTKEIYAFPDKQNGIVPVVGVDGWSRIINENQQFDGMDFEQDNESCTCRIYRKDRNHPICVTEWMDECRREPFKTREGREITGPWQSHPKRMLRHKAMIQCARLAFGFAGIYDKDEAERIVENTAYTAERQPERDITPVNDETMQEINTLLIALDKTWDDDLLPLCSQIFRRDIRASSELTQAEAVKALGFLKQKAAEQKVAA
Assay: EMSA; glutaraldehyde-fixed; ssDNA EMSA: 10 nM DNA, 50 mM potassium phosphate pH 6.0, 5 mM EDTA, 5% glycerol, 0.1 mg/ml BSA, 37°C, 40 min, then 0.1% glutaraldehyde; second-strand EMSA: 5 nM each strand, 20 mM Tris-HCl pH 7.5, 5 mM MgCl2, 1 mM DTT, 0.1 mg/ml BSA, 37°C
Conditions: protein: recombinant; tags: N-terminal His6 removed by thrombin; Gly-Ser-His left before Met1; label: 5' Cy3

Does TGCGGATGGCTTAGAGCTTAATTGCTGAATCTGGTGCTGTAGCTCAACAT (ssDNA) [50-minus ssDNA] bind?
Result: binds
